Key:
CB megakaryocytes [1] = assay: Megakaryocyte polyploidy by propidium iodide staining after ROCK inhibitor treatment; type: cell-based, human; details: treatment of mature megakaryocytes over 5 days, vs untreated
Description: FIGS. 3A-3C. Rock inhibitor(Y27632) treatment increases megakaryocyte polyploidy. (FIG. 3A) Schematic representation of the strategy for the rock inhibitor treatment of mature megakaryocytes over 5 days. (FIG. 3B) Histogram plots showing propidium Iodide (PI) staining in fixed and permeabilized untreated or Y27632 treated megakaryocytes. (FIG. 3C) Percentage of polyploid (=>8N) megakaryocytes in untreated or Y27632 treated groups, number above bar indicates p-value.
The inventors characterized the influence of ROCK inhibitors on CB megakaryocyte ploidy changes, platelets secretions, and their functionality.
This indicates enhancement of functional profile of the CB platelets (FIGS. 4D-4E). Several different ROCK inhibitors can be used in this procedure including Y27632, KD025, GSK269962 and Azaindole 1([9-12].

CB megakaryocytes [2] = assay: Platelet secretion from megakaryocytes cultured in vitro with or without ROCK inhibitor; type: cell-based, human; details: 48 hrs culture, vs without inhibitor; dose-dependent
Description: (§1) FIGS. 4A-4E. Rock inhibitor treatment enhance platelets secretion and TRAP induced activation. (FIG. 4A) Schematic representation of the strategy for the in-vitro megakaryocytes culture with or without rock inhibitor(Y27632) for 48 hrs. (FIG. 4B) Number of platelets after 48 hrs, number above bar indicates p-value. […] This indicates enhancement of functional profile of the CB platelets (FIGS. 4D-4E). Several different ROCK inhibitors can be used in this procedure including Y27632, KD025, GSK269962 and Azaindole 1([9-12].

CB platelets = assay: TRAP-induced platelet activation (CD62P expression); type: cell-based, human; details: after TRAP stimulation, vs without inhibitor
Description: as §1

[3] = test system: CB derived hematopoietic stem cells (HSCs); assay: Cell surface fucosylation by flow cytometry HECA-452 antibody staining; type: cell-based, human; details: FT-VI 0.025 μg/ml plus GDP-fucose, 37° C., 30 min, vs control
Description: (§2) FIGS. 7A-7G. FIG. 7A. […] (FIG. 7C) HECA-452 antibody mean fluorescence intensity (MFI) histogram expression in control and fucosylated megakaryocytes (CD41a+CD42b+CD61+ cells). (FIGS. 7D-7E) Schematic representation of CB megakaryocytes injection into NSG mice, BM homing analysis and the percentage of homed megakaryocytes in control and fucosylated megakaryocytes group. (FIGS. 7F-7G) CB megakaryocyte injection strategy into sublethally irradiated(3Gy) NSG mice and day 7 blood circulating CB derived platelets percentages measurement in the control and fucosylated groups.
(§3) To characterize the fucosylation levels at steady state, the inventors performed flow cytometry HECA-452 antibody staining (which recognizes sLex/cutaneous lymphocyte antigen (CLA), the fucosylated selectin ligand) to measure the levels of cell surface fucosylation in the freshly isolated CB derived hematopoietic stem cells(HSCs, lineage-CD34+CD38-CD90+CD45RA− cells), megakaryocytes lineage committed, megakaryocyte erythroid progenitors (MEPs, lineage-CD34+CD38+CD135−CD45RA−), and differentiated megakaryocytes(CD41a+CD42b+ cells). […] The NSG bone marrow homing experiments determine if the CB MK's surface fucosylation modification influences their homing into the irradiated mice marrow niche. Briefly, 5×10^6 fluorescein succinimidyl ester (CFSE) dye labeled, unmanipulated control or in-vitro fucosyltransferase-VI (FT-VI) induced fucosylated, expanded CB megakaryocytes were injected into sub-lethally (3Gy) irradiated NSG mice and bone marrow homing analysis at 20 h posttransplant was performed by flow cytometry. […] Similarly, another megakaryocytes tail vein transplantation (5×10^6/mice) experiment was performed, and initial percentage circulating platelets levels were measured from the control and fucosylated MK recipient groups. […]

[4] = test system: megakaryocyte erythroid progenitors (MEPs); assay: as above; type: cell-based, human; details: FT-VI 0.025 μg/ml plus GDP-fucose, 37° C., 30 min, vs control
Description: as §2, §3

[5] = test system: megakaryocytes (CD41a+CD42b+ cells); assay: as above; type: cell-based, human; details: FT-VI 0.025 μg/ml plus GDP-fucose, 37° C., 30 min, vs control
Description: as §2, §3

recipient patients = details: ex vivo treatment of CB CD34+ progenitors with FT-VI plus GDP-fucose; cited from earlier work

Question: What does the source list for C[C@@H](N)[C@H]1CC[C@H](C(=O)Nc2ccncc2)CC1 [Y27632]?
Answer: megakaryocyte polyploidy (polyploid =>8N megakaryocytes) (CB megakaryocytes [1]): increases; platelets secretion (number of platelets) (CB megakaryocytes [2]): enhance; TRAP induced platelet activation (CD62P expression) (CB platelets): enhance

B1: α1,3-fucosyltransferase (protein, UniProt P51993 1-359, looked up)
4-galactosyl-N-acetylglucosami …: MDPLGPAKPQWSWRCCLTTLLFQLLMAVCFFSYLRVSQDDPTVYPNGSRFPDSTGTPAHSIPLILLWTWPFNKPIALPRCSEMVPGTADCNITADRKVYPQADAVIVHHREVMYNPSAQLPRSPRRQGQRWIWFSMESPSHCWQLKAMDGYFNLTMSYRSDSDIFTPYGWLEPWSGQPAHPPLNLSAKTELVAWAVSNWGPNSARVRYYQSLQAHLKVDVYGRSHKPLPQGTMMETLSRYKFYLAFENSLHPDYITEKLWRNALEAWAVPVVLGPSRSNYERFLPPDAFIHVDDFQSPKDLARYLQELDKDHARYLSYFRWRETLRPRSFSWALAFCKACWKLQEESRYQTRGIAAWFT
notes: fucosyl-transferase enzyme used with GDP-fucose for ex vivo fucosylation of cells
Question: With B1 as the molecule, how does the “fucosylation levels (HECA-452 MFI) in HSCs” value [3] read?
Answer: significantly increased

Question: And the “fucosylation levels (HECA-452 MFI) in MEPs” value [4]?
Answer: significantly increased

Question: What about the “fucosylation levels (HECA-452 MFI) in megakaryocytes” value [5] of the same molecule?
Answer: significantly increased

Question: And the “neutropenia and thrombocytopenia duration in recipient patients” value (recipient patients)?
Answer: significantly reduce

Reference: US20230383257A1, “PRODUCTION OF MEGAKARYOCYTES AND PLATELETS IN A CO-CULTURE SYSTEM” (BOARD OF REGENTS, THE UNIVERSITY OF TEXAS SYSTEM, priority 2020, published 2023)
